Laboratory results published in patent US20230183352A1.

Biological target: CD80-FC (UniProt P33681)
Test: ELISA, CD80-FC coated 4 µg/ml, biotin-PDL1-FC titrated

Chain of CD80-FC (P33681 35-242 limits assumed): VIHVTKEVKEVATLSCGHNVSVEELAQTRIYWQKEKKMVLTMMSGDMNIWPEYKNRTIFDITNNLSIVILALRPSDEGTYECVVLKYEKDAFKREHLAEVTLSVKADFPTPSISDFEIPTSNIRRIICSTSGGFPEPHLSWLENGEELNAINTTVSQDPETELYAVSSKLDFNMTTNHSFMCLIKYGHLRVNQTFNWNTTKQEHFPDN
Chain of Biotin QP004.3 (biotin-PDL1-FC) (Q9NZQ7 19-238 limits assumed): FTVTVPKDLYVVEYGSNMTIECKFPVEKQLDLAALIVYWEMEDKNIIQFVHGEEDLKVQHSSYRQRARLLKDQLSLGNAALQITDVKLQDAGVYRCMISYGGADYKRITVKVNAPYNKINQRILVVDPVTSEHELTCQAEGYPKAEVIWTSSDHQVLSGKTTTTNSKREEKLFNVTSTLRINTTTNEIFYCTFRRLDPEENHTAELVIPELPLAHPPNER

For “Biotin QP004.3 (biotin-PDL1-FC) (from UniProt Q9NZQ7 19-238) (Fc fusion)”, the ELISA reading at 0 µg/ml Biotin-QP004.3 (blank) was 0.0484, the ELISA reading at 0.00064 µg/ml Biotin-QP004.3 was 0.048 and the ELISA reading at 0.0032 µg/ml Biotin-QP004.3 was 0.0468. The ELISA reading at 0.016 µg/ml Biotin-QP004.3 was 0.0668, the ELISA reading at 0.08 µg/ml Biotin-QP004.3 was 0.179 and the ELISA reading at 0.4 µg/ml Biotin-QP004.3 was 0.591. For the same substance, the ELISA reading at 2 µg/ml Biotin-QP004.3 was 1.87 and the ELISA reading at 10 µg/ml Biotin-QP004.3 was 3.19.
